Reference: the RNAGym collection of RNA variant scans (doi:10.7554/elife.90254)

B1: OR4K15 (parent)
chain: GUUAACGGUCAUAGGCCAUGGAAACUAGGAGCACCAUUUCGCUGCCAGUGAAGAAAUGAACAAAGAAAAUCUGGGCCAGGCAGGCAUCAAAAGAAAUAGUCUUGCGCUCAACCAGAAAGUCUGUAAUCAUUUUAAGGGUA

Variants of: B1
Experiment: self-cleavage, relative activity (ratio to wild type); higher = more cleavage; in vitro, sequencing; the parent is a self-cleaving ribozyme

| Variant | self-cleavage |
| --- | --- |
| C34U U130C | 1.44 |
| A47U A63G | 0.8 |
| U49G G83A | 0.47 |
| U37C A47G | 1.19 |
| G7U A11G | 1.63 |
| A47G U133C | 1.99 |
| A18G A23U | 1.88 |
| U37C U49A | 1.64 |
| A96G G106U | 0.01 |
| A135U | 1.47 |
| A24G U43A | 1.29 |
| U70A A111G | 0.04 |
| A5G A91G | 0.47 |
| U19C C46A | 1.64 |
| A22U G29A | 0.84 |
| A4G U133A | 1.25 |
| U57C A135U | 1.02 |
| U43C A91G | 1.29 |
| C16U U103C | 0.77 |
| A52G A62G | 1.19 |
| U26C A126G | 0.72 |
| C128A | 0.84 |
| U9C U97C | 1.09 |
| A90G A110U | 0.94 |

| Variant | self-cleavage |
| --- | --- |
| U2C G138A | 1.1 |
| U39C C105U | 0.24 |
| C34U U124A | 0.3 |
| U108A U124C | 0.01 |
| U19C C112A | 0.02 |
| A86G A91U | 0.73 |
| A22G A64G | 1.31 |
| A59G A66G | 1.15 |
| A117G U122A | 2.35 |
| C61U A82G | 0.28 |
| A22U A89U | 1.91 |
| A62U G99A | 0.62 |
| U43C A62C | 1.57 |
| A24G A111U | 0.19 |
| A22G U132C | 1.28 |
| A60U A62G | 1.72 |
| G1A A111G | 0.21 |
| A52G U127C | 0.95 |
| G20U U97C | 0.63 |
| A96G U97A | 0.94 |
| A78U A114G | 0.11 |
| A24C A47U | 0.89 |
| G58A A126G | 0.63 |
| A78U U127C | 0.07 |

| Variant | self-cleavage |
| --- | --- |
| A90G G106C | 0 |
| C61U A63G | 2.17 |
| U122A U127C | 0.98 |
| C10U U100C | 2.44 |
| U39C A66U | 1.28 |
| A18U G74A | 0.22 |
| G75A A117G | 0.07 |
| U72C C81A | 0.26 |
| A52G G83A | 1.07 |
| A11U A62G | 0.96 |
| U9C C109A | 0.49 |
| A64U A90G | 0.32 |
| A66G U124C | 0.76 |
| A78C A111U | 0.01 |
| U19A A129G | 0.05 |
| A63G A98U | 2.55 |
| U108C A110U | 0.01 |
| G99A U130C | 0.13 |
| C32U U120C | 1.57 |
| A95G C113U | 0.15 |
| A5C A110U | 0.95 |
| A62G U108C | 0.02 |
| A4G A23G | 1.09 |
| A68G A92G | 1.55 |

| Variant | self-cleavage |
| --- | --- |
| U108A U130G | 0 |
| A60G A63G | 1.35 |
| U57C A114G | 0.12 |
| A47U A98G | 0.16 |
| A13G A64G | 0.88 |
| A36C G48A | 1.28 |
| A11U U108A | 0.02 |
| A55G U122G | 2.18 |
| A95G G106A | 0 |
| A89G U130C | 1.79 |
| A66G U102C | 1.84 |
| A63C A126G | 0.99 |
| G74U A94G | 0.41 |
| A60U U70C | 1.72 |
| U43G U100C | 2.82 |
| A54U U100C | 1.43 |
| A18U A33C | 1.61 |
| A30G A69U | 1.18 |
| A63G A86U | 2.04 |
| C35A | 1.58 |
| G20U A111G | 0.04 |
| U97C U103C | 0.58 |
| A36G A66G | 1.8 |
| A63U A96G | 1.74 |

| Variant | self-cleavage |
| --- | --- |
| A54G A134U | 1.32 |
| A68U A89G | 1.53 |
| A18G C101U | 0.85 |
| A27U A59U | 1.64 |
| U39A A54U | 1.18 |
| U38A A134G | 1.9 |
| A5G G21U | 0.96 |
| A51G A92U | 2.09 |
| U100A A129G | 0.23 |
| A126C U127C | 0.21 |
| A33G A140U | 0.97 |
| U43G A89G | 1.26 |
| A23U A91G | 0.79 |
| A60G U100C | 1.35 |
| C34A G73A | 0.17 |
| A23U A63G | 0.92 |
| U70A A92G | 0.4 |
| G50U A82U | 0.23 |
| A117G U127C | 0.77 |
| A33G A68G | 1.04 |
| A126G U132A | 0.69 |
| A18G U39A | 1.96 |
| U72A A134U | 0.27 |
| U2C A86G | 0.95 |

| Variant | self-cleavage |
| --- | --- |
| A51U A59U | 0.5 |
| A78U C88U | 0.42 |
| C45U A82G | 0.27 |
| G58A U103C | 1.09 |
| A5U U19C | 1.4 |
| U57C A69G | 0.75 |
| G21A U130C | 0.53 |
| C6A U43C | 0.5 |
| A86G A129G | 0.22 |
| A47C A59C | 1.35 |
| A96G U127A | 2.73 |
| A11G U97G | 0.34 |
| C112A U127C | 0.03 |
| A111G A116G | 0.01 |
| U37G A129G | 1.12 |
| A33G U38C | 1.41 |
| A52G C76G | 0.03 |
| A59C | 1.66 |
| U43A U97C | 0.92 |
| U127C A134G | 1.09 |
| A89C A118G | 0.51 |
| A94U A116C | 0.07 |
| A33C A64C | 1.61 |
| A47G A69G | 0.93 |

| Variant | self-cleavage |
| --- | --- |
| A91G U103C | 0.46 |
| U43C G58U | 0.07 |
| U43G A129G | 1.19 |
| A33G U43A | 1.32 |
| U97C G123A | 1.14 |
| A30G U102C | 1.21 |
| C16A A22G | 1.29 |
| U120C A135U | 0.85 |
| U57C A94U | 1.23 |
| A22U A110G | 0.12 |
| A11G A96G | 1.18 |
| A4G U43C | 1.35 |
| A94G A118G | 0.8 |
| U122A U124A | 0.14 |
| A118U U127A | 0.97 |
| A5U A111G | 0.06 |
| C6U U122C | 0.82 |
| A24U A116G | 0.78 |
| U97C A110U | 1.02 |
| C34U G41U | 1.82 |
| U72C C112U | 0.02 |
| A18U A68U | 2.28 |
| A4G A129G | 0.78 |
